Patent US20260210939A1, “MODIFIED OLFACTORY RECEPTORS” (GIVAUDAN SA, priority 2022, published 2026)

These substances were tested against T1, OR7C1 (Homo sapiens, UniProt O76099, D296E/G302K/M297V/R299D/T295K/V126I) (assay: CRE-luciferase assay, HEK293T cells expressing OR7C1 (wild-type / modified C-terminus)). Conditions: OR7C1 variant, 1 μM Ambermax.
T1 construct: Improved functional expression of modified OR-genes containing the truncated, optimized C-terminus; expressed in transfected cells; host or cells: HEK293T stably expressing human RTP1S(V227I) and RTP2(L220R)
T1 sequence (O76099 with tags, fused parts or gaps V126I/T295K/D296E/M297V/R299D/G302K): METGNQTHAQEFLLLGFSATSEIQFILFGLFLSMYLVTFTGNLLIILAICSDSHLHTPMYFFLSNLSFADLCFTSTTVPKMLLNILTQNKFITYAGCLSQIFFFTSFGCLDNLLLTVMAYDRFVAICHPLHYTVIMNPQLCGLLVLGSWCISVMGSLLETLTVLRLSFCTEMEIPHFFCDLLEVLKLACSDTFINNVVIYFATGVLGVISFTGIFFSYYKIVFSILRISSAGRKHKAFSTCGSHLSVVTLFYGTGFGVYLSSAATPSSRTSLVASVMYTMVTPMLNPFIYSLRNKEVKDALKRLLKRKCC
Format: cell-based
Excerpt: To test for possible variants of the sequence […]CC (SEQ ID NO: 86) leading to similar improved functional expression, different point mutations were introduced into the first 16 amino acids of this sequence (corresponding to […], SEQ ID NO: 10) and the variants were fused after the TM7 with OR7C1. […] The test concentrations were selected to fall into the range of partial activity of the wild-type sequence.

% of the activation by the optimized sequence RNKEVKDALKRLLKRKCC | Substance
153.0% | Glu Lys
100.5% | Cys Phe
1.0% | Ser Gln
207.1% | SEQ ID NO: 103 (RNKEVKDALKRLFKRKCC; source 1..18: note = C-terminal domain sequence)
2.0% | Arg Lys
96.3% | SEQ ID NO: 104 (RNKEVKDALKRLLRRKCC; source 1..18: note = C-terminal domain sequence)
81.0% | SEQ ID NO: 324 (RNKEVKIALKRLLKRKCC; source 1..18: note = C-terminal domain sequence)
115.3% | SEQ ID NO: 96 (RNKEVKAALKRLLKRKCC; source 1..18: note = C-terminal domain sequence)
139.9% | Arg Gly
5.6% | SEQ ID NO: 197 (RNKEVKDALKRLLERKCC; source 1..18: note = C-terminal domain sequence)
41.1% | SEQ ID NO: 322 (RNKEVKFALKRLLKRKCC; source 1..18: note = C-terminal domain sequence)
76.7% | SEQ ID NO: 89 (RNKEMKDALKRLLKRKCC; source 1..18: note = C-terminal domain sequence)
120.1% | SEQ ID NO: 98 (RNKEVKDAVKRLLKRKCC; source 1..18: note = C-terminal domain sequence)
239.7% | SEQ ID NO: 124 (RNKEVKRALKRLLKRKYP; source 1..18: note = C-terminal domain sequence)
280.9% | SEQ ID NO: 126 (RNKEVKRALKRLLKRKFK; source 1..18: note = C-terminal domain sequence)
85.0% | Glu Arg
157.1% | SEQ ID NO: 119 (RNKEVKDALRKLLKRKCC; source 1..18: note = C-terminal domain sequence)
254.2% | SEQ ID NO: 125 (RNKEVKRALKRLLKRKRF; source 1..18: note = C-terminal domain sequence)
4.6% | SEQ ID NO: 190 (RNKEVKDGLKRLLKRKCC; source 1..18: note = C-terminal domain sequence)
140.8% | SEQ ID NO: 91 (RNKEVKKALKRLLKRKCC; source 1..18: note = C-terminal domain sequence)
1.3% | Val Met
3.3% | SEQ ID NO: 187 (RTKEVKDALKRLLKRKCC; source 1..18: note = C-terminal domain sequence)

% of the activation by the optimized sequence RNKEVKDALKRLLKRKCC | Substance
176.6% | SEQ ID NO: 94 (RNKEVKRALKRLLKRKCC; source 1..18: note = C-terminal domain sequence)
174.6% | SEQ ID NO: 99 (RNKEVKDAIKRLLKRKCC; source 1..18: note = C-terminal domain sequence)
107.6% | SEQ ID NO: 326 (RNKEVKMALKRLLKRKCC; source 1..18: note = C-terminal domain sequence)
127.8% | Tyr Arg
63.2% | SEQ ID NO: 113 (RNKEVKDALKRLLGRKCC; source 1..18: note = C-terminal domain sequence)
142.3% | Cys Gly
95.4% | Tyr Leu
122.1% | SEQ ID NO: 95 (RNKEVKVALKRLLKRKCC; source 1..18: note = C-terminal domain sequence)
294.8% | SEQ ID NO: 129 (RNKEVKKALKRLLKRKRF; source 1..18: note = C-terminal domain sequence)
66.5% | SEQ ID NO: 88 (RNKEIKDALKRLLKRKCC; source 1..18: note = C-terminal domain sequence)
168.8% | SEQ ID NO: 158 (RNKEVKDALKRLLKRKCRRRKK; source 1..22: note = C-terminal domain sequence)
59.4% | SEQ ID NO: 331 (RNKEVKYALKRLLKRKCC; source 1..18: note = C-terminal domain sequence)
211.8% | Pro Gln
128.4% | SEQ ID NO: 97 (RNKEVKQALKRLLKRKCC; source 1..18: note = C-terminal domain sequence)
204.3% | SEQ ID NO: 157 (RNKEVKDALKRLLKRKCRRRRR; source 1..22: note = C-terminal domain sequence)
126.8% | Gly Cys
27.0% | SEQ ID NO: 192 (RNKEVKDAMKRLLKRKCC; source 1..18: note = C-terminal domain sequence)
86.8% | SEQ ID NO: 101 (RNKEVKDALKKLLKRKCC; source 1..18: note = C-terminal domain sequence)
28.5% | SEQ ID NO: 188 (RQKEVKDALKRLLKRKCC; source 1..18: note = C-terminal domain sequence)
53.2% | SEQ ID NO: 112 (RNKEVKDALKRILKRKCC; source 1..18: note = C-terminal domain sequence)
44.4% | SEQ ID NO: 111 (RNKEVKDALHRLLKRKCC; source 1..18: note = C-terminal domain sequence)
26.0% | SEQ ID NO: 186 (KNKEVKDALKRLLKRKCC; source 1..18: note = C-terminal domain sequence)

% of the activation by the optimized sequence RNKEVKDALKRLLKRKCC | Substance
106.7% | SEQ ID NO: 105 (RNKEVKDALKRLLKKKCC; source 1..18: note = C-terminal domain sequence)
86.0% | SEQ ID NO: 100 (RNKEVKDALRRLLKRKCC; source 1..18: note = C-terminal domain sequence)
119.1% | SEQ ID NO: 87 (RNREVKDALKRLLKRKCC; source 1..18: note = C-terminal domain sequence)
0.0% | Ile Ala
181.7% | Phe Arg
142.3% | Pro Arg
3.5% | Lys Ala
75.6% | Pro Ala
117.4% | SEQ ID NO: 90 (RNKEVRDALKRLLKRKCC; source 1..18: note = C-terminal domain sequence)
104.1% | SEQ ID NO: 106 (RNKEVKDALKRLLKRRCC; source 1..18: note = C-terminal domain sequence)
90.4% | SEQ ID NO: 120 (RNKEVKDALKRLLRRRCC; source 1..18: note = C-terminal domain sequence)
95.3% | SEQ ID NO: 93 (RNKEVKNALKRLLKRKCC; source 1..18: note = C-terminal domain sequence)
36.2% | Pro Pro
99.1% | SEQ ID NO: 328 (RNKEVKSALKRLLKRKCC; source 1..18: note = C-terminal domain sequence)
312.9% | SEQ ID NO: 123 (RNKEVKRALKRLLKRKRR; source 1..18: note = C-terminal domain sequence)
111.9% | Pro Gly
65.6% | SEQ ID NO: 323 (RNKEVKHALKRLLKRKCC; source 1..18: note = C-terminal domain sequence)
5.7% | SEQ ID NO: 196 (RNKEVKDALKRLKKRKCC; source 1..18: note = C-terminal domain sequence)
308.5% | SEQ ID NO: 127 (RNKEVKKALKRLLKRKRR; source 1..18: note = C-terminal domain sequence)
130.8% | Arg Phe

Substance | % of the activation by the optimized sequence RNKEVKDALKRLLKRKCC
Gly Gly | 128.9%
